Assay results reported in patent publication US20160230173A1.

Molecular target: T1, Wild-type glucocorticoid receptor, Myc-DDK tagged NR3C1 (Origene catalog # RC220189), substrate of the CASP1 enzymatic assay
T1 chain: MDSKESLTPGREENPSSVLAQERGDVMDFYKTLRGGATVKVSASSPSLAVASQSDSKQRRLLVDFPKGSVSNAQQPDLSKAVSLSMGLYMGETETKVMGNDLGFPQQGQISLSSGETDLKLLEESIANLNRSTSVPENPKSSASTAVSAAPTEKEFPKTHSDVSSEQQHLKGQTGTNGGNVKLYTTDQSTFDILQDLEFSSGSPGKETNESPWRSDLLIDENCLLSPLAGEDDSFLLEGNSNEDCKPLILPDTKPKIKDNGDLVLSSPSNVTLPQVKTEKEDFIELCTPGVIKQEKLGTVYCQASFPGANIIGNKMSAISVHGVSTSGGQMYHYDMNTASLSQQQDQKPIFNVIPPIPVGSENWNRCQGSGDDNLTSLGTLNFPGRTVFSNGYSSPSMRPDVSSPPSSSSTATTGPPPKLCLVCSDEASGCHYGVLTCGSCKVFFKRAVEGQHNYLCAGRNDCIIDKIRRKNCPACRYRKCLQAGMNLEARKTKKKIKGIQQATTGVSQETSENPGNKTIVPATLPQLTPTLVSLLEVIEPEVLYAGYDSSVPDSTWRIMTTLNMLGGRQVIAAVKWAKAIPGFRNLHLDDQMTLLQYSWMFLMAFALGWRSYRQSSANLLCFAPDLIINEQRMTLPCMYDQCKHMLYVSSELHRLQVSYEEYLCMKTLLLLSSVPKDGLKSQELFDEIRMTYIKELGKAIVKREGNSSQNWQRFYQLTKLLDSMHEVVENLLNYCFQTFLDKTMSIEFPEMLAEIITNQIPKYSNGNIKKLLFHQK

B1: Recombinant human CASP1 (Enzo Life Sciences CASP1 assay kit for drug discovery, catalog number BML-AK701-0001) (protein)
chain: NPAMPTSSGSEGNVKLCSLEEAQRIWKQKSAEIYPIMDKSSRTRLALIICNEEFDSIPRRTGAEVDITGMTMLLQNLGYSVDVKKNLTASDMTTELEAFAHRPEHKTSDSTFLVFMSHGIREGICGKKHSEQVPDILQLNAIFNMLNTKNCPSLKDKPKVIIIQACRGDSPGVVWFKDSVGVSGNLSLPTTEEFEDDAIKKAHIEKDFIAFCSSTPDNVSWRHPTMGSVFIGRLIEHMQEYACSCDVEEIFRKVRFSFEQPDGRAQMPTTERVTLTRCFYLFPGH
  cleavage of GR in CASP1 enzymatic assay (western blot): enzymatic assays were performed that revealed glucocorticoid receptor (NR3C1) cleavage by recombinant CASP1
